Source: paper PMC11538491
Where two headings read alike, the source gives them in different places.

B1: serpinA3 from human plasma, bound to the B19V capsid (natural protein)
chain: HPNSPLDEENLTQENQDRGTHVDLGLASANVDFAFSLYKQLVLKAPDKNVIFSPLSISTALAFLSLGAHNTTLTEILKGLKFNLTETSEAEIHQSFQHLLRTLNQSSDELQLSMGNAMFVKEQLSLLDRFTEDAKRLYGSEAFATDFQDSAAAKKLINDYVKNGTRGKITDLIKDLDSQTMMVLVNYIFFKAKWEMPFDPQDTHQSRFYLSKKKWVMVPMMSLHHLTIPYFRDEELSCTVVELKYTGNASALFILPDQDKMEEVEAMLLPETLKRWRDSLEFREIGELYLPKFSISRDYNLNDILLQLGIEEAFTSKADLSGITGARNLAVSQVVHKAVLDVFEEGTEASAATAVKITLLSALVETRTIVRFNRPFLMIIVPTDTQNIFFMSKVTNPKQA
modifications: five extra densities at the predicted N-glycosylation sites (positions not given)

Legend:
[1] = biological target: parvovirus B19 (B19V) virion purified from infected patient plasma, genotype 1 (human parvovirus B19); assay: cryo-EM structure
[2] = biological target: parvovirus B19 (B19V) virion purified from infected patient plasma, genotype 1 (human parvovirus B19); assay: cryo-EM structure; remark: listed apart in the source

Molecule | occupancy of the binding sites [1] [%] | stoichiometry N (molecules per capsid) [1] | occupancy of the binding sites [2] [%] | stoichiometry N (molecules per capsid) [2] | stoichiometry N (sites occupied per capsid (of 30)) [2]
inter-alpha-trypsin inhibitor heavy chain 4 (ITIH4) from human plasma, bound to the B19V capsid (natural protein) | 19.4 | 12 | – | – | –
B1 | – | – | 38.3 | 23 | 22
